Molecular target: T1, Cdc24-H (S. cerevisiae, UniProt P11433 1-854)
T1 sequence: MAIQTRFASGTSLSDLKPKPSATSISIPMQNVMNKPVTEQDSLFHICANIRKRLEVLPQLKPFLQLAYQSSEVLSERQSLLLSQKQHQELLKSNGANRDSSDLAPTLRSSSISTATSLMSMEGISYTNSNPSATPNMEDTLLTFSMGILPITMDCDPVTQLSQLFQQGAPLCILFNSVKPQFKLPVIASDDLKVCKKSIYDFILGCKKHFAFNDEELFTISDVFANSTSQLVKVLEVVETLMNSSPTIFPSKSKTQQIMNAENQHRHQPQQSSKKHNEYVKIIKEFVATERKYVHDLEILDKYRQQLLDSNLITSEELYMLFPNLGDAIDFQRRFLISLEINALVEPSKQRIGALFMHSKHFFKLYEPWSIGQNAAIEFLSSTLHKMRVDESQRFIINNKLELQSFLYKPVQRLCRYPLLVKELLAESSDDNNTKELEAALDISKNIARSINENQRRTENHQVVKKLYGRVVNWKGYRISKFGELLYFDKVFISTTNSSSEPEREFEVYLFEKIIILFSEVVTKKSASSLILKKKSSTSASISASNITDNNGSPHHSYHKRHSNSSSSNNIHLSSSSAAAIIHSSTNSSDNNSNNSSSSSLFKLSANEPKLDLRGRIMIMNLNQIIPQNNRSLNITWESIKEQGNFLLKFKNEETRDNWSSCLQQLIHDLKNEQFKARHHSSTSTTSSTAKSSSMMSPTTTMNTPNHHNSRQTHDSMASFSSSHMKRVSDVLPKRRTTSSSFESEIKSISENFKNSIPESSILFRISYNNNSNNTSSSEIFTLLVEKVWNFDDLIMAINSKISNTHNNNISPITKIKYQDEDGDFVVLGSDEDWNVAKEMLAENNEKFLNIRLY
Experiment: pull-down

binding result: binds
B1: H-Bem1-F (natural protein)
chain: MLKNFKLSKRDSNGSKGRITSADISTPSHDNGSVIKHIKTVPVRYLSSSSTPVKSQRDSSPKNRHNSKDITSPEKVIKAKYSYQAQTSKELSFMEGEFFYVSGDEKDWYKASNPSTGKEGVVPKTYFEVFDRTKPSSVNGSNSSSRKVTNDSLNMGSLYAIVLYDFKAEKADELTTYVGENLFICAHHNCEWFIAKPIGRLGGPGLVPVGFVSIIDIATGYATGNDVIEDIKSVNLPTVQEWKSNIARYKASNISLGSVEQQQQQSITKPQNKSAKLVDGELLVKASVESFGLEDEKYWFLVCCELSNGKTRQLKRYYQDFYDLQVQLLDAFPAEAGKLRDAGGQWSKRIMPYIPGPVPYVTNSITKKRKEDLNIYVADLVNLPDYISRSEMVHSLFVVLNNGFDREFERDENQNNIKTLQENDTATFATASQTSNFASTNQDNTLTGEDLKLNKKLSDLSLSGSKQAPAQSTSGLKTTKIKFYYKDDIFALMLKGDTTYKELRSKIAPRIDTDNFKLQTKLFDGSGEEIKTDSQVSNIIQAKLKISVHDI

Source: doi:10.1101/2023.04.24.538075 (bioRxiv, 2023)
